Experimental data: US20240254219A1 (University of California, published 2024)

Key:
[1] = molecular target: T1, human LRP6 (low density lipoprotein receptor-related protein 6), full length on HEK293 cells (human, UniProt O75581 20-1613); experiment: cell-based or functional assay
[2] = molecular target: T2, recombinant mouse LRP6 extracellular domain (mouse, UniProt O88572 20-1370); experiment: ELISA on recombinant mouse LRP6 extracellular domain
T2 construct: extracellular domain; also called mouse LRP6 ectodomain
T2 sequence (looked up): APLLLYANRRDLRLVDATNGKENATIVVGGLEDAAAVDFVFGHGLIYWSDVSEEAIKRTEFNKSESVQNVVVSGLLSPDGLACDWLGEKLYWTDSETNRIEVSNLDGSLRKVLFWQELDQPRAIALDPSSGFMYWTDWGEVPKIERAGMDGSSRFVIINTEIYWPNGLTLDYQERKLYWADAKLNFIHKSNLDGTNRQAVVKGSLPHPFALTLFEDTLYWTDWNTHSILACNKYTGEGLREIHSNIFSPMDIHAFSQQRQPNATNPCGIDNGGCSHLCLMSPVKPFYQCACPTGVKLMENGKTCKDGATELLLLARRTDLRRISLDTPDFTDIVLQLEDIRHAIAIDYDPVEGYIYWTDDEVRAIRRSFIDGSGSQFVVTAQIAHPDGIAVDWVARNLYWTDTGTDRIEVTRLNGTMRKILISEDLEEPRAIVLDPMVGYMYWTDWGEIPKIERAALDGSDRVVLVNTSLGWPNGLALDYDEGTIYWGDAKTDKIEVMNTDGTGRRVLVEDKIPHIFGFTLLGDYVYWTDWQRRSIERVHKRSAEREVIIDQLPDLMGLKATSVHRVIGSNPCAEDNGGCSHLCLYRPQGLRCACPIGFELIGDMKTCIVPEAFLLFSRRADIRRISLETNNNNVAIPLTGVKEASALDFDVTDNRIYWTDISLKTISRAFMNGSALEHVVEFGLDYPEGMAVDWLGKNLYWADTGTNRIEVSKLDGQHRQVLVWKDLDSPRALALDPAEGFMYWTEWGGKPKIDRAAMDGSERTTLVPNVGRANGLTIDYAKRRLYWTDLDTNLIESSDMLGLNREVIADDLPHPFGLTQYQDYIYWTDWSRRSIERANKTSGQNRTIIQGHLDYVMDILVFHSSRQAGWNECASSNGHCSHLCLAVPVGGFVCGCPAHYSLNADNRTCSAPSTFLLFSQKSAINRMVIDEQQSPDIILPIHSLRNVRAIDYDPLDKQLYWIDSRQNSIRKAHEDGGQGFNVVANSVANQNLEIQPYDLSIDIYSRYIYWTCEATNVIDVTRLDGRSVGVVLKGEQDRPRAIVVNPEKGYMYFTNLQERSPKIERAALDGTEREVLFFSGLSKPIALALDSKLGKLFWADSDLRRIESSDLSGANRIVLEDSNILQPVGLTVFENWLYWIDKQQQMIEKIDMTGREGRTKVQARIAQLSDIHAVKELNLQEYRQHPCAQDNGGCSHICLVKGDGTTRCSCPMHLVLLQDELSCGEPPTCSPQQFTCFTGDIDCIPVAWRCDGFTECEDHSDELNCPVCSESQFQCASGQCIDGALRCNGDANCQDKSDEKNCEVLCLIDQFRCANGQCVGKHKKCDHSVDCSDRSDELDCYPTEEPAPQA

[3] = molecular target: T1, human LRP6 (low density lipoprotein …); experiment: flow cytometry on HEK293 cells; apparent KD by curve fitting of MFI
Description: (§1) HEK293 cells were transfected with LRP6 expression plasmid and incubated with 66 or E34N19 scFv-phage for 1 hour. E34N19 was identified previously as a Wnt antagonist binding to the P3E3P4E4 domain (Lee et al., 2018). The E34N19 IgG was simultaneously added as a competitor. Bound phages were detected by sequential incubation of mouse anti-fd IgG and PE-labeled anti-mouse IgG. FIG. 7A is a graph showing the dissociation curve of the 66 antibody. HEK293 cells were incubated with varying concentrations of 66 IgG, and the binding was analyzed by flow cytometry. […] As a positive control, the E34N19E IgG competes with the E34N19E scFv-phage.
(§2) The apparent KD of antibodies was analyzed by FACS as described (Lee et al., 2018). Briefly, cells were trypsinized, washed, and resuspended in FACS buffer (PBS, 1% FBS). Antibodies serially diluted in FACS buffer were incubated with target cells (3×10⁵ cells/tube) overnight at 4° C. Cells were washed, incubated with Alexa Fluor® 647-labeled goat anti-human IgG (Jackson ImmunoResearch). 1 hour post incubation, cells were washed in PBS and analyzed using a BD Accuri C6 flow cytometer (BD Biosciences). Median Fluorescence Intensity (MFI) values were analyzed by curve fitting (GraphPad) to determine the affinity.

[4] = molecular target: T3, LRP6 double mutant (K662A/K684A) on HEK293 cells (human, UniProt O75581 20-1613); experiment: flow cytometry on transfected HEK293 cells
T3 construct: whole, on cells; Made by site-directed mutagenesis of the LRP6 construct in pCMV-Entry and transfected into HEK293 cells
Description: FIG. 1F is a graph showing fine epitope mapping by alanine scanning of LRP6 and the effect of the alanine substitutions on binding of the 66 antibody. LRP6 single mutants and the double mutant (K662A/K684A) were separately transfected into HEK293 cells. An anti-LRP6 scFv-Fc fusion that binds to the LRP6-P1 domain was used as a control to confirm cell surface expression of LRP6. Binding of the 66 antibody was determined by flow cytometry, and median fluorescence intensity (MFI) values were normalized against MFI of the P1-binding scFv-Fc.
To map the binding site further, the binding of the 66 antibody to LRP6 was modeled using a homology modeling-predicted structure for the 66 Fv and two known crystal structures of LRP6 (3S8Z and 4A0P: FIGS. 8A and 8B, respectively). Several potential 66 contact sites were identified on LRP6. Alanine scan mutagenesis was performed at those sites. Alanine mutants of LRP6 ectodomain were constructed using QuikChange Site-Directed Mutagenesis Kit (Agilent Technologies) according to the manufacturer's protocol. Binding of the 66 IgG to these LRP6 mutants was analyzed by flow cytometry. K662A and K684A single mutations caused a significant loss of 66 binding (FIG. 1F).

[5] = molecular target: T1, human LRP6 (low density lipoprotein …); experiment: flow cytometry titration of 66 IgG on HEK293 cells
Description: as §1, §2

- EC50, STF reporter on HEK293 cells without Wnt ligands [1]: 13.4 nM
- EC50, Wnt1-mediated beta-catenin signaling (STF reporter) with RSPO2 (5 nM) [1]: 1.8 nM
- EC50, Wnt3a-mediated beta-catenin signaling (STF reporter) with RSPO2 (5 nM) [1]: 4.8 nM
- binding result [2]: binds
- Kd [3]: ~5 nM
- binding result [4]: no binding
- EC50 (read off the curve) [5]: ~5 nM
B1: 66 IgG (Wnt-agonist human monoclonal antibody 66) (antibody, V domains shown)
VH: QVQLLQSGGGLVQPGGSLRLSCAASGFTFSTYAMSWVRQAPGKGLEWVSTIGPSGSSTYYAYADSVKGRFTISRDNYKNMLYLQMNSLRAEDTAVYYCAKEGPNSGYFDFDYWGQGTLVTVSS
VL: EIVLTQSPSSLSASVGDRVTITCRASQSISTYLNWYQQKPGKAPKVLIYAASSLQSGVPSRISGSGSGTDFTLTISSLQPEDFATYYCQQSYSIPLTFGGGTKLEIK
notes: also called 66 antibody; agonist 66 IgG
